Numbered stars: 1 amine (or outer) side, 2 acyl side, 3 side chain; on linkers, the order of the positions; unused ones are H or OH. Bridge positions count the residues as written; N and C are the ends. * marks the point of attachment. C20 diacid = O=C(O)CCCCCCCCCCCCCCCCCCC(=O)*; γGlu = O=C(O)[C@H](CCC(=O)[*:2])N[*:1]
B1: N^α1 N^α1-[(4S)-4-carboxy-4-[[(4S)-4-carboxy-4-(19-carboxynonadecanoylamino)butanoyl]amino]butanoyl]-[Glu14,Arg17,Pro21,Pro27]-h-amylin (peptide)
peptide: {C20 diacid-γGlu-γGlu}-KCNTATCATQRLAEFLRHSSPNFGAIPSSTNVGSNTY-NH2
modifications: disulfide 2-7
SMILES: CC[C@H](C)[C@H](NC(=O)[C@H](C)NC(=O)CNC(=O)[C@H](Cc1ccccc1)NC(=O)[C@H](CC(N)=O)NC(=O)[C@@H]1CCCN1C(=O)[C@H](CO)NC(=O)[C@H](CO)NC(=O)[C@H](Cc1c[nH]cn1)NC(=O)[C@H](CCCNC(=N)N)NC(=O)[C@H](CC(C)C)NC(=O)[C@H](Cc1ccccc1)NC(=O)[C@H](CCC(=O)O)NC(=O)[C@H](C)NC(=O)[C@H](CC(C)C)NC(=O)[C@H](CCCNC(=N)N)NC(=O)[C@H](CCC(N)=O)NC(=O)[C@@H](NC(=O)[C@H](C)NC(=O)[C@@H]1CSSC[C@H](NC(=O)[C@H](CCCCN)NC(=O)CC[C@H](NC(=O)CC[C@H](NC(=O)CCCCCCCCCCCCCCCCCCC(=O)O)C(=O)O)C(=O)O)C(=O)N[C@@H](CC(N)=O)C(=O)N[C@@H]([C@@H](C)O)C(=O)N[C@@H](C)C(=O)N[C@@H]([C@@H](C)O)C(=O)N1)[C@@H](C)O)C(=O)N1CCC[C@H]1C(=O)N[C@@H](CO)C(=O)N[C@@H](CO)C(=O)N[C@H](C(=O)N[C@@H](CC(N)=O)C(=O)N[C@H](C(=O)NCC(=O)N[C@@H](CO)C(=O)N[C@@H](CC(N)=O)C(=O)N[C@H](C(=O)N[C@@H](Cc1ccc(O)cc1)C(N)=O)[C@@H](C)O)C(C)C)[C@@H](C)O
notes: Acylated analogue of human amylin; also called compound 15
B2: N^α1-[(4S)-4-carboxy-4-(19-carboxynonadecanoylamino)butanoyl]-[Arg17,Pro21,Pro27,His34]-h-amylin (peptide)
peptide: KCNTATCATQRLANFLRHSSPNFGAIPSSTNVGHNTY
modifications: C20 diacid-gGlu on alpha-amino of the N-terminal residue; Cys2-Cys7 disulfide; C-terminal amide (as human amylin)
notes: Acylated analogue of human amylin; also called compound 40

Tests used:
[1] = biological target: T1, human calcitonin receptor (human, UniProt P30988 25-474); assay: cell-based or functional assay
T1 sequence (looked up): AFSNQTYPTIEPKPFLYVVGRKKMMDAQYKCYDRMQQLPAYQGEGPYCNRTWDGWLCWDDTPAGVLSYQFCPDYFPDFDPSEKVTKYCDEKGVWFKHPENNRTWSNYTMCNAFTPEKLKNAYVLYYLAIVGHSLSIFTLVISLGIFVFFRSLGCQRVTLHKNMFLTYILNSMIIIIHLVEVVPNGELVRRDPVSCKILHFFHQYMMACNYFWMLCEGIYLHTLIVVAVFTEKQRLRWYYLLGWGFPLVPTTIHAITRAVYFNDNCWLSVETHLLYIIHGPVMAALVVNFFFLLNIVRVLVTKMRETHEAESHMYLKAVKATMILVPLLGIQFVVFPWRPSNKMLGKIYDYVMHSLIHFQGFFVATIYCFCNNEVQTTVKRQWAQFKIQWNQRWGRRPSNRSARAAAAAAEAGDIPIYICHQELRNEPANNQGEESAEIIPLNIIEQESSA

[2] = biological target: T2, human amylin receptor (amylin 3(a) receptor: human calcitonin receptor with RAMP-3) (human, UniProt P30988 25-474; O60896 24-148, limits assumed); assay: SPA competition binding on membranes of BHK cells with human calcitonin receptor + RAMP-3; displacement of 125I-rat amylin (Assay V)
T2 construct: whole, on cells; Whole cells in the luciferase assay (Assay II a); also called hAmylin-R; hAmylinR
T2 sequence (looked up) 1: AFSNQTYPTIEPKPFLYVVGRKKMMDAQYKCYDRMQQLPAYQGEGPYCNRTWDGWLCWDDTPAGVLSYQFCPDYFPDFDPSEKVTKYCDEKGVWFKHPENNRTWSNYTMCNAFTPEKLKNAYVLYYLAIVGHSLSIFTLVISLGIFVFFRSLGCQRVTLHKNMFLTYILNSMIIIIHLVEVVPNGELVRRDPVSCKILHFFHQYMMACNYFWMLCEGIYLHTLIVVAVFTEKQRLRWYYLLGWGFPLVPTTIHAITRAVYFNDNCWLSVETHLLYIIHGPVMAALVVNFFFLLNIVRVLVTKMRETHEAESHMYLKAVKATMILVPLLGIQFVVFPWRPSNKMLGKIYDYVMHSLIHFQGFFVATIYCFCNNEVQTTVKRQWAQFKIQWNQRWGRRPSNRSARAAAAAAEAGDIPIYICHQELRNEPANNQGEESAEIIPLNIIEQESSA
T2 sequence (looked up) 2: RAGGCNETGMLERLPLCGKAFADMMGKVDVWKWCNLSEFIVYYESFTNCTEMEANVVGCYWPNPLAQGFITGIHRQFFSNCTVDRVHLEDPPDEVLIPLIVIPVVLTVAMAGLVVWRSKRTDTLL
In short: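 One-site competition analysis of SPA counts yielded IC₅₀ as a measure of affinity. Membranes were at 35 ng/μL final; incubation was 120 min at 25° C, pH 7.4.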

[3] = biological target: T3, human calcitonin receptor (human, UniProt P30988 25-474); assay: ratio IC50 human calcitonin receptor / IC50 human amylin receptor
T3 construct: whole, on cells; Cell membranes of a stably transfected BHK cell line (Assay VII); also called hCTR; hCT
T3 sequence (looked up): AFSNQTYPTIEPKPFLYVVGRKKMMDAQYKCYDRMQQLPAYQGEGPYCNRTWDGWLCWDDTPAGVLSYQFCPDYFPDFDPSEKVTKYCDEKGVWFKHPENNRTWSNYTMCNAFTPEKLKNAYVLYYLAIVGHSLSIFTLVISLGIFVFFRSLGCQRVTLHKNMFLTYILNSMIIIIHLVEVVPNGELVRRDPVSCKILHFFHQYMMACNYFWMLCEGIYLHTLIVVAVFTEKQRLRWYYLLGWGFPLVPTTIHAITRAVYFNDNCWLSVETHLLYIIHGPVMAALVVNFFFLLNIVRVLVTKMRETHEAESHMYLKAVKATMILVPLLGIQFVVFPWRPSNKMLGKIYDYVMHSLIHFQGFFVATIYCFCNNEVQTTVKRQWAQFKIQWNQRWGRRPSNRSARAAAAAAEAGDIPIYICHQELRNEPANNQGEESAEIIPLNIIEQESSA
Experimental: The resulting pellet was resuspended, homogenized and centrifuged (20.000 rpm, 15 min) in a buffer containing 20 mM Na-HEPES and 0.1 mM EDTA (pH 7.4, buffer 2). The resulting pellet was resuspended in buffer 2 and protein concentration was measured (BCA protein Assay, Pierce). The homogenate was kept cold during the whole procedure. The membranes were kept at −80° C. until use. The assay was performed in a 384 well Optiplate (PerkinElmer) in a total volume of 40 ul. Membranes were mixed with SPA beads. Final concentration of membranes 35 ng/μL final and SPA beads was 0.05 mg/well. Test-compounds were dissolved in DMSO and further diluted in assay buffer (50 mM Hepes, pH 7.4, 1 mM CaCl2, 5 mM MgCl₂, 0.1% OA and 0.02% Tween20). […] The final mixture was incubated with shaking at 400 rpm for 120 min at 25° C. prior to centrifugation (1500 rpm, 10 min). Samples were analyzed on TopCounter™ (Packard). The IC₅₀ was calculated using (one site binding competition analysis) GraphPad Prism5 as a measure of receptor affinity.
Membranes were prepared in the following way; the cells were rinsed with PBS and incubated with Versene for approximately 5 min before harvesting. The cells were flushed with PBS and the cell-suspension was centrifuged for 5 min at 1000 rpm. Cells were homogenized (Ultrathurrax) in a buffer containing 20 mM Na-HEPES and 10 mM EDTA (pH 7.4) and centrifuged at 20.000 rpm for 15 min. The resulting pellet was resuspended, homogenized and centrifuged (20.000 rpm, 15 min) in a buffer containing 20 mM Na-HEPES and 0.1 mM EDTA (pH 7.4, buffer 2). The resulting pellet was resuspended in buffer 2 and protein concentration was measured (BCA protein Assay, Pierce). The homogenate was kept cold during the whole procedure. The membranes were kept at −80° C. until use. Assay was performed in a 384 well Optiplate (PerkinElmer) in a total volume of 40 ul. Membranes were mixed with SPA beads.

[4] = biological target: T4, rat amylin receptor (rat calcitonin receptor + rat RAMP 3) (rat, UniProt P32214 25-516; Q9JJ73 23-147); assay: SPA competition vs 125I-rat amylin, membranes with rat CTR + rat RAMP3 (Assay VI)
T4 construct: whole, on cells; Cell membranes of transiently transfected BHK tk'ts 13 cells (Assay VI); also called rAmylin-R; rat amylin 3(a) receptor
T4 sequence (looked up) 1: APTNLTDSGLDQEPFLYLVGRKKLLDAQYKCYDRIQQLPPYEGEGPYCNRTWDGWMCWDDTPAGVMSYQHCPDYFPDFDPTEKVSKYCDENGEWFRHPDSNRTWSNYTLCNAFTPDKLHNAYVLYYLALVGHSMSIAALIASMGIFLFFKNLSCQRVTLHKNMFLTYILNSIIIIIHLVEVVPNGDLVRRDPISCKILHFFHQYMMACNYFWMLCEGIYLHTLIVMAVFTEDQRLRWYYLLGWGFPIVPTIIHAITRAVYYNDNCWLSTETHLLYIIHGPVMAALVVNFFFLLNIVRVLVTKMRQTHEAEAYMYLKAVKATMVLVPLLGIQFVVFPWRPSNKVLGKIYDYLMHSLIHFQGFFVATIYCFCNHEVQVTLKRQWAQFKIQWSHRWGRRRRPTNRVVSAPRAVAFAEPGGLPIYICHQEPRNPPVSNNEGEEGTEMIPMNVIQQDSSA
T4 sequence (looked up) 2: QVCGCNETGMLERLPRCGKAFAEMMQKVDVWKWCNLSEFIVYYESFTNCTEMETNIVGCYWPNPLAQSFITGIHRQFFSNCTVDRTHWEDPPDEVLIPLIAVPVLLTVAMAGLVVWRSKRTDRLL

rat calcitonin receptor [5] = biological target: T5, rat calcitonin receptor (rat, UniProt P32214 25-516); assay: SPA competition vs 125I-calcitonin, membranes with rat CTR (Assay VIII)
T5 construct: whole, on cells; Cell membranes of transiently transfected BHK tk'ts 13 cells (Assay VIII); also called rCTR; rCT
T5 sequence (looked up): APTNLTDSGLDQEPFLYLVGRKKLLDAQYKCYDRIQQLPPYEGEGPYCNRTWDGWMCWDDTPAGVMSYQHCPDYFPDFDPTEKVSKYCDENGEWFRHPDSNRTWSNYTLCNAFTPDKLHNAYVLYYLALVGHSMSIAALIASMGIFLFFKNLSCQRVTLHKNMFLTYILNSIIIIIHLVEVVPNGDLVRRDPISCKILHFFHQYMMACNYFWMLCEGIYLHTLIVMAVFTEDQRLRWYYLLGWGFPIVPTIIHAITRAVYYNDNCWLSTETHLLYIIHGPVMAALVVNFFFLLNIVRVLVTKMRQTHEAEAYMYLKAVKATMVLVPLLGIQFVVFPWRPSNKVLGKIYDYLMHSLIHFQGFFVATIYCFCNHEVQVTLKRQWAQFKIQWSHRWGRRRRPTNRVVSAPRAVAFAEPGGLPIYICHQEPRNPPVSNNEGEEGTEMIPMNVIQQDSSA

rat calcitonin receptor [6] = biological target: T5, rat calcitonin receptor; assay: ratio IC50 rat calcitonin receptor / IC50 rat amylin receptor

| Ratio hCT/hAmylin funct. [1] [ratio] | IC50 [2] [nM] | Ratio hCT/hAmylin binding [3] | IC50 [4] [nM] | IC50 (rat calcitonin receptor [5]) [nM] | Ratio rCT/rAmylin binding (rat calcitonin receptor [6]) | Binder |
| --- | --- | --- | --- | --- | --- | --- |
| 4.9 | 0.426 | – | – | – | – | {C20 diacid-γGlu}-GRCNTATCATQRLAAFLRHSSPNFGAIPSSTNVGHNTY-NH2 (disulfide 3-8 (inferred)) |
| 2.9 | 0.217 | – | – | – | – | {C20 diacid-γGlu}-GRCNTATCATQRLAHFLRHSSPNFGAIPSSTNVGPNTY-NH2 (disulfide 3-8 (inferred)) |
| – | – | 26 | – | – | – | B1 |
| – | – | 31.1 | 1.5 | 69.2 | 46.2 | B2 |

Source: patent publication US20140087995A1 (published 2014)
